# Data from the nanobody polyreactivity screen of Harvey et al. (2022).
# Assay: yeast display, Sf9 membrane polyspecificity reagent, FACS + sequencing; frameworks hold sequencing errors
# How it was run: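 Polyreactivity labels are assigned by the sorting gate from which each nanobody was recovered. The gates were low and high (top ~1%), set on anti-HA fluorescence for expression and streptavidin fluorescence for reagent binding. Before sorting, galactose-induced (36–48 hours) yeast display cells were stained for 1 hour at 4 °C with 10% biotinylated, detergent-solubilized Sf9 membrane reagent.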
row,Sequence,polyreactivity (PSR sort gate)
1,QVQLVESGGGLLQAGGSLRLSCAASGSTLRRYAMGWDRQAPGKERELVAAISGSGDSTYYADSVKGRFTISRDNAKNTVYLQMNSLKPEDTAVYYCNAVYAFNGYDYWGQGTQVTVSS,low polyreactivity
2,QVQRVESGGGLVQAGGSLRLRCAASGSIFYQYALGWYRQARGKEREWVAAISRSGGRTYYADSVKGRFTISRDNAKNTVYLQMNSLKPEDTAVYYCAAGTSWPWYQRDYWGQGTQVTVSS,low polyreactivity
3,QVQLVESGGGLVQAGGSLRLSCAASGRTFVYTMGWYRQAPGKERELVAAIRYSGGRTYYADSVKGRFTISRDNAQNTVYLQMNSLKPEDTAVYYCAARNYATGVRYDYWGQVTQVTVSS,high polyreactivity
4,QVQLVESVGGLVQAGGSLRLSCAASGITFSTNAMGWYRQAPGKERELVAAITSVTSTYYADSVKGRFTISRDNAKNTVYLQMNSLKPEDTAVYYCASRLSRWPYFYEYNYWGQGTQVTVSS,low polyreactivity
5,QVHLVESGGGLVQAGGSLRLSCAASGSIFRKYAMGWYRQAPGKERELLAAISVSGGSTYYADSVKGRFTISRDNAKNTVYLQMNSLNPEDTAVYYCAADSGPFNRYAPRGYWGQGTQVTVSS,low polyreactivity
6,QVQLVESGGGVVQAGGSLRLSGAASGTLDGNAMGWYRPAPGKERELVAAISRCGGRTYYADSVKGRFTISRDNAKNTVYLQMNSQKPEDTAVYYCNTVSKPGYAYNYWGQGTQVTVSS,high polyreactivity
7,QVQLVESGGGLVQAGGSLRLSCAASGRIFGENAMGWYRQAPGKEWEFVAVISISDASTYYADSVKGRFTISRDNAKNSVDFQMNSLKPEDTAVYYCAADLTDFLYVASDYWGQGTQVTVSS,low polyreactivity
8,QVQLVESGGGLVQAGGSLRLSCAASGITLVYYVMGWYRQAPGKERELVAAISSGGITYYADSVKGRFTISRDNAKNTVYLQMNSLKPEDTAVYYCAAESRQYVRTYGYWGQGTQVTVSS,low polyreactivity
9,QVQHVESAAGLVQAGGSLRLSCDPSGIIFGRYAMGLYRHAPGKEREFVAAITWSGGSTYYADSVKGRFTISRDNAKNTVYLQMNSLKPEDTAVYYCAADTWYRYDYWGQGTQVTVSS,low polyreactivity
10,QVQLVESGGGLVQAGGSLRLSCAASGRIFAYYAMGWYRQAPGKERELVAAISSGGTTNYADSVKGRFTISRDNAKNTVYLQMNSLKPEDTAVYYCNADGWRRSRQYYYWGQGTQVTVSS,low polyreactivity
11,QVQLVESGGGLVQAGGSLRLSCAASGRTIDSYAMGWSRQAPGKEREFVAAISYSGTSTYYADSVKGRFTISRDNAKNTVYLQMNSLKPEDTAVYYCSKEYNFRLWGQGTQVTVSS,low polyreactivity
12,QVKLVESGGGLVQAGGSLRLSCAASGFTFALYSMGWYRQAPGKERELVAAITRRGGSTYYADSVKGRFTISRDNAKNTVYVQMNSLKPEDTAVYYCAKRERAIKVSRYDSHDYWGQGTQVTVSS,high polyreactivity
13,QDQLVESGGGLVQAGGSLRLSCAASGSTFGFYAMGWYRQAPGKERELVAAITTGGSTNYADSVKGRFTISRDNAKNTVYLQMNSLKPEDTAVYYCNADVYWNPYYDYDYWGQGTQVTVSS,high polyreactivity
14,QVQLVESGGGLVQAGGSLRLSCAASGSIFPYYAMGWYRQAPGKVRELVATISSGGSTKYADSVKGRFTISRDNAKNTVYLQMNSLKPEDTAVYYCAADWYLGPYSWYTEKYNYCGQGTQVTVSS,high polyreactivity
15,QVQLVESRGGLVQAGGRLRLSCAASGSIFDWYAMGWYRQAPGKERELVADITWSGDSTYYADSVKGRFTISRDNAKNTVYLQMNSLKPEDTAVYYCAADIWFNTYYEYDYWGQGTQVTVSS,high polyreactivity
16,QVQLVESGGGLVQAGGSLRLSCAASGSTFPVNAKGWYRPAPGKERQLVATIRWTGGGTYYADSVKGRFTISRDNAKNTVYLQMNSLKPEDTAVYYCAADPPWEWSDYGYDYWGQGTQVTVSS,low polyreactivity
17,QVQLVESGGGLVQAGGSLRLSCAASGFTFYVNVMGWYRQPPGKEREFVAAIRTRGASTYYADSVKGRFTISRDNAKNTVYLQMNSLKPEDTADYYCAAGWFWNYWYGVSMDYWGQGTQVTVSS,high polyreactivity
18,QVHLVESGGGLVQAGGSLRLSCAASGRIFGAYTMGWYRQAPGKERELVAAIAGRTYYADSVKGRFTISRDNAKYTVYLQMNSLKPEETAVYYFADRYKSRNYDYWGQGTQVTVSS,high polyreactivity
19,QVQLVESWGGLVQAGGSLRLSCAASGRTFYSNAMGWYRQAPGKERELVAAITSTDDSTYYADSVKGRFTISRDNAKNTVYLQMNSLKPEDTAVYYCNTDGLIAIRGLWWVEYDYWGQGTQVTVSS,low polyreactivity
20,QVQLVESGGGLVQAGGSLRLSCAASGFTFAYYTMGWYRQAPGKERELVAAINWSGGSTYYADSVKGRFTISRDNAKNTVYLQMNSLKPEDTAVYYSAPTCPYYNSRQGHQYDYWGQGTQVTVSS,high polyreactivity
21,QVQLVESGGGLVQAGGSLRLSCAACGRPFTLYAMGWYRQAPGKERELVASITSGTRTYYADSVKGRFTISRDNAKNTVYLQMNSLKPEDTAVYYCAKEGYRRTLHRLYDYWGEGTQVTVSS,low polyreactivity
22,QVQLVETGGGLVQAGGSLRLSCAASGNHFSTYTMGGYRQAPGKERELVAAISTSGTSTYYADSVKGRFTISRDNAKNTVYLQMNSLKPEDTAVYYCAASYLRSSQRMDYWGQGTQVTVSS,low polyreactivity

row,Sequence,polyreactivity (PSR sort gate)
1,QVQLVESGGGLVQAGGSLRLSCADSGRTFVTTAMGWYRQAPGKERELVAAIDGGGDRTYYADTVKVRFTISRDYAKYTVYLQMNSLKPEDSAVYYCNKDRGTLYGDMDSWGQGTQVTVSS,low polyreactivity
2,QVQLVESGGGLVQAGGSLRLSCAASGFIFTYNDMGWYRQAPGKERELVASITWDGGRTYYADAVKGRCTISRDNAKNTVYLQMISLKPEDTADYYCAKRLGGSPIQARGDYWGQGTQVTVSS,low polyreactivity
3,QVQLVESGGGLVQAGGSLRLSCAASGIRFAQYTMGGYRQAHGKESELVAAINRNGGSTYYADSVKGRFTISRDNAKNTVYLQMNSLKPEDTPVYYCNADALGFRYDYWGQGTQVTVSS,low polyreactivity
4,QVQLVESGGGLVQAGGSLRLSCAASGYIFRYYAMGWYRQAPGKEREFVAAISRNGGSTYYADSVKGRFTISRDNAKNTVYLQMNSLKPEDTAVYYCNKRVGFLYKYDYWGQGTQVTVSS,high polyreactivity
5,QEQLEESGGGLVQAGGSLRLSCAASGFTLGRYAMGWYIQAPGKERELVAAINSSGGRTYYADSVNGRFTISRDTAKNTVYLQLNSLKPEDTAVYYCATVNVRGPPYDFWGQGTQVTVSS,high polyreactivity
6,QVQLVESGGGLVQAGGSLRLSCAPSGFTFRYYAMGWYRQAPGKERELVAAISWSVGSTYYADSVKGRFTISRDNAKNTVYLQMNSLKPEDTAVYYCNAAWPGYISNRLGYDYWGQGTQVTVSS,high polyreactivity
7,QVQLVESGGGLVQAGGSLRLSCAASGGTFTGYAMGWYRQAPGKERELVAAISYSGTRTYYADSVKGRFTISRDNAKNTVYLQMNSLKPEDTAVYYCNALYAIWHDYWGQGTQVTVSS,high polyreactivity
8,QVQLVESGGGLVQAGGSLRLSCAASGFIFTRNAMGWYRQAPGKERELVATISRSGSSTSYADSVKGRFTISRDNAKNTVYLQMNRLKPEDTAVYYCAATYIYRHSVISRYDYWGQGTQVTVSS,high polyreactivity
9,QVQLEESGGGLVQAGGSLRLSCAASGLTFAQNAMGWYRQAPGKEREMVAAITSSGGRTYYADSVKGRFTISRDNANNTVYLQMNSLKPEDTAVYDCNVRYYRYGYTYGYWGQGTQVTVSS,high polyreactivity
10,QVQLVESGGGLVQAGGSLRLSCAASGSTFSYNTMGWYRQAPGKERELVATISSSSGSTTYADSVKGRFTISRDIAKNTVYLQINSLKPEDTAVYYCNVDDPFYSGVVEFDYWGQGTQVTVSS,low polyreactivity
11,QVQLVESGGGLVQAGGSLRVSCAASGFIIEVNSMAWYRQAPGKERELVARIDWSGGSTYYADSVKGRFTISRDNAKNTVFLQMNSLIPEDTAVYYCAVVASRSHTETPEYDYWGQGTQVTVSS,low polyreactivity
12,QVQLVESGGGLVQAGGSLRLSCAASGSFLEPYSMGRYRQATGKERELVAAISFSDTSTYYADSVKGRFTISRDNAKNTVYLQMNSLKQEDTAVYYCAATYVLYWGYEYDYWGQGTQVTVSS,high polyreactivity
13,QVQLVESGGGLVQAGGSLRLSCAASGLIFRLYAMGWYRQAPGKERELVAALSISGGSTYYADSVKGRFTLSRDNAKNTVYLQMNSLKPEDTAVYYCAARYYRGGPYYKYDYWGQGTQVTVSS,high polyreactivity
14,QVQLVESGAGLVQAGGSLRVSCAASGLIFAWYAMGWYRQAPGKERELVATIDVSGGTYYADSVKGRFTISRDNAQNTVYLQMNSLNPEDTAVYYCAAGVTYWYDAPEYYYWGQVTQVTVSS,high polyreactivity
15,QVQLVESGGGLVQAGGSLRLSCAASGFIFAYYAMGWYRQAPGKERELVAAISKRGGSTYYADSVKGRFTISRDNAKNTVYLQMNSLKPEDTAVYYCAADGHGGYGYWGQGTQVTVSS,high polyreactivity
16,QVQLVESGGGLVQAGGSLRLSCAASGSIFTYYAMGWYRQAPGKERELVAAIDFSGASTSYADSVKGRFTISRDNAKNTVYLQMNSLKPEDTAVYYCAAVLYWYPPYYYWGQGTQVTVSS,low polyreactivity
17,QVQLVESGGGLVQAGGSLRLSCAASGRTFPPYAMGWYRQAPGKERELVAAISRRAGTTYYADSVKGRFTISRDNAKNTVYLQMNSLKPEDTAVYYCAASDHYRWYVHRWEDPFYYWGQGTQVTVSS,low polyreactivity
18,QVQLVESGGGLVQAGGSLRLSCADSGFTFLSNVMGWYRQAPGKERELDAAINYSGDGTYYADSVKGRFTISRDNAKNTVYLQMNSLKPEDSAVYYCAADVEYYRDVPPQVYVSDDYWGQGTQVTVSS,low polyreactivity
19,QVQIVESGGGLFQAGGSLRLSCAASGLIFYSYAMGWYRQAPWKERELVAAISSGGGSTYYADSVKGRFTISRDNAKNTVYLQLNSLKPEDTAVYYCNRLYKYRTPDYDHWGQGTQVTVSS,high polyreactivity
20,QVQLVESGGGLVQAGGSLRLICAASGRTFQYYAMGWYRQARGKERELVAAISWSGGSTYYADSVKGRFTISRDNAKNTVYLQMNSLKAEDNAVYYFAASFRGQIVGYWGQGTQVTVSS,high polyreactivity
21,QVQLVESGGGLVQAGGSLRLSCAASGRTFRLYAMGWYRDATGKERELFAAISRRGTSTHYADSVKGRFTISRDNAKNTVYLQMNSLKPEDTAVYYCAVDSNTYSFYGTHDDWGQGTQVTVSS,high polyreactivity
